Test results taken from US20080267980A1 (MUSC FOUNDATION FOR RESEARCH DEVELOPMENT, published 2008).

Tests used:
Human C3dg-biotin [1] = biological target: T1, Human C3dg-biotin (human, UniProt P01024 955-1303, biotin (site not stated) in the SPR experiments); assay: SPR (referred to)
T1 construct: domain: C3dg; In the ELISA it is purified C3dg coated on wells; also called C3dg ligand; CR2 ligand C3dg
Protocol: (§1) Kinetic analysis of the interaction of the CR2 fusion proteins with C3dg-biotin was performed using surface plasmon resonance (SPR) measurements made on a BIAcore 3000 instrument. Human C3dg-biotin, prepared as described (36), was bound to the surface of BIAcore streptavidin (SA) sensor chips by injecting C3dg-biotin at 50 μg/ml over the surface of one flow cell of the chip at 2 μl/minute for 20 minutes. The flow buffer was 0.5×PBS+0.05% Tween 20. The SPR signal from captured C3dg generated BIAcore response units ranging from 250-500. Control streptavidin-coated flow cells were run in the absence of protein. Binding was evaluated over a range of CR2 fusion protein concentrations (15.6-500 nM) in 0.5×PBS, 0.05% Tween 20 at 25° C. at a flow rate of 25 μl/minute. CR2 fusion protein samples were injected in 50 μl aliquots using the kinject command. Association of the fusion proteins with the ligand was monitored for 120 seconds, after which the complex was allowed to dissociate in the presence of buffer only for an additional 120 seconds. […] Binding data were fitted to a 1:1 Langmuir binding model using BIAevaluation Version 3.1 software (BIAcore) and evaluated for best fit by low residual and χ² values. […]
(§2) A comparison of the affinity of the different recombinant fusion proteins for the CR2 ligand C3dg was determined by surface plasmon resonance measurements. […]

Human C3dg-biotin [2] = biological target: T1, Human C3dg-biotin; assay: ELISA, wells coated with purified C3dg, anti-complement inhibitor antibodies
Protocol: ELISA experiments were conducted as previously described. In ELISA experiments, CR2-containing constructs were added to wells coated with purified C3dg. Binding was detected by means of anti-complement inhibitor antibodies and enzyme-conjugated secondary antibodies. All CR2 containing constructs, but not sCD59 and sDAF bound to C3d.

Human C3dg-biotin [3] = biological target: T1, Human C3dg-biotin; assay: SPR, biotinylated C3dg on streptavidin BIAcore chip
Protocol: as §1, §2

Human C3dg-biotin [4] = biological target: T1, Human C3dg-biotin; assay: SPR, C3dg-biotin captured on streptavidin chip
Protocol: as §1, §2

T1 sequence (P01024 955-1303 limits assumed): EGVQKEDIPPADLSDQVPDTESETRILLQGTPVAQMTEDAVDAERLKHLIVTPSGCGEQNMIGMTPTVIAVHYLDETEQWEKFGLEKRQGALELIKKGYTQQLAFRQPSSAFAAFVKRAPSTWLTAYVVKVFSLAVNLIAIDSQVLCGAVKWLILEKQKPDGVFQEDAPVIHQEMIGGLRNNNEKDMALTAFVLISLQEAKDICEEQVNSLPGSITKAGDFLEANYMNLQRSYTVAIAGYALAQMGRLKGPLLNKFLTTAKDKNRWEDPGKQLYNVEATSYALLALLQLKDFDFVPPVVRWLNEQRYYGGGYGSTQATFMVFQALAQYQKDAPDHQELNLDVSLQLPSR

B1: CR2-CD59 (other)
chain: ISCGSPPPILNGRISYYSTPIAVGTVIRYSCSGTFRLIGEKSLLCITKDKVDGTWDKPAPKCEYFNKYSSCPEPIVPGGYKIRGSTPYRHGDSVTFACKTNFSMNGNKSVWCQANNMWGPTRLPTCVSVFPLECPALPMIHNGHHTSENVGSIAPGLSVTYSCESGYLLVGEKIINCLSSGKWSAVPPTCEEARCKSLGRFPNGKVKEPPILRVGVTANFFCDEGYRLQGPPSSRCVIAGQGVAWTKMPVCSGGGGSLQCYNCPNPTADCKTAVNCSSDFDACLITKAGLQVYNKCWKFEHCNFNDVTTRLRENELTYYCCKKDLCNFNEQLEN
notes: also called CR2-human CD59; fusion protein with CR2 at the N-terminus
binding result (Human C3dg-biotin [1]): binds

B2: DAF-CR2 (other)
chain: DCGLPPDVPNAQPALEGRTSFPEDTVITYKCEESFVKIPGEKDSVICLKGSQWSDIEEFCNRSCEVPTRLNSASLKQPYITQNYFPVGTVVEYECRPGYRREPSLSPKLTCLQNLKWSTAVEFCKKKSCPNPGEIRNGQIDVPGGILFGATISFSCNTGYKLFGSTSSFCLISGSSVQWSDPLPECREIYCPAPPQIDNGIIQGERDHYGYRQSVTYACNKGFTMIGEHSIYCTVNNDEGEWSGPPPECRSSGGGGSGGGGSGGGGSISCGSPPPILNGRISYYSTPIAVGTVIRYSCSGTFRLIGEKSLLCITKDKVDGTWDKPAPKCEYFNKYSSCPEPIVPGGYKIRGSTPYRHGDSVTFACKTNFSMNGNKSVWCQANNMWGPTRLPTCVSVFPLECPALPMIHNGHHTSENVGSIAPGLSVTYSCESGYLLVGEKIINCLSSGKWSAVPPTCEEARCKSLGRFPNGKVKEPPILRVGVTANFFCDEGYRLQGPPSSRCVIAGQGVAWTKMPVC
notes: also called human DAF-CR2; fusion protein with CR2 at the C-terminus
binding result (Human C3dg-biotin [2]): binds

B3: soluble CD59 (other, human, UniProt P13987 26-102, looked up)
chain: LQCYNCPNPTADCKTAVNCSSDFDACLITKAGLQVYNKCWKFEHCNFNDVTTRLRENELTYYCCKKDLCNFNEQLEN
notes: also called sCD59; untargeted sCD59
binding result (Human C3dg-biotin [3]): no binding

B4: soluble DAF (other, human, UniProt P08174 35-283, looked up)
chain: DCGLPPDVPNAQPALEGRTSFPEDTVITYKCEESFVKIPGEKDSVICLKGSQWSDIEEFCNRSCEVPTRLNSASLKQPYITQNYFPVGTVVEYECRPGYRREPSLSPKLTCLQNLKWSTAVEFCKKKSCPNPGEIRNGQIDVPGGILFGATISFSCNTGYKLFGSTSSFCLISGSSVQWSDPLPECREIYCPAPPQIDNGIIQGERDHYGYRQSVTYACNKGFTMIGEHSIYCTVNNDEGEWSGPPPEC
notes: range 1-249; also called sDAF; untargeted sDAF
binding result (Human C3dg-biotin [4]): no binding
